Laboratory results from PMC10318062 (Nature Communications, 2023).
Read-outs that look alike come from different tables or passages of the source.

Experiments:
[1] = biological target: SARS-CoV-2 hexaproline stabilized pre-fusion spike glycoprotein (S6P) (SARS-CoV-2, ancestral (Wuhan-Hu-1 …, UniProt P0DTC2, stabilised))
[2] = biological target: T1, SARS-CoV-2 Receptor Binding Domain (RBD) (SARS-CoV-2, UniProt P0DTC2); test: AlphaScreen or HTRF; conditions: one partner purified
[3] = biological target: T1, SARS-CoV-2 Receptor Binding Domain (RBD)
HCoV-OC43 S = HCoV-OC43 S (HCoV-OC43, strain ; reference …, UniProt P36334); test: AlphaScreen or HTRF; conditions: one partner purified
Sequence of HCoV-OC43 S (P36334 14-1353): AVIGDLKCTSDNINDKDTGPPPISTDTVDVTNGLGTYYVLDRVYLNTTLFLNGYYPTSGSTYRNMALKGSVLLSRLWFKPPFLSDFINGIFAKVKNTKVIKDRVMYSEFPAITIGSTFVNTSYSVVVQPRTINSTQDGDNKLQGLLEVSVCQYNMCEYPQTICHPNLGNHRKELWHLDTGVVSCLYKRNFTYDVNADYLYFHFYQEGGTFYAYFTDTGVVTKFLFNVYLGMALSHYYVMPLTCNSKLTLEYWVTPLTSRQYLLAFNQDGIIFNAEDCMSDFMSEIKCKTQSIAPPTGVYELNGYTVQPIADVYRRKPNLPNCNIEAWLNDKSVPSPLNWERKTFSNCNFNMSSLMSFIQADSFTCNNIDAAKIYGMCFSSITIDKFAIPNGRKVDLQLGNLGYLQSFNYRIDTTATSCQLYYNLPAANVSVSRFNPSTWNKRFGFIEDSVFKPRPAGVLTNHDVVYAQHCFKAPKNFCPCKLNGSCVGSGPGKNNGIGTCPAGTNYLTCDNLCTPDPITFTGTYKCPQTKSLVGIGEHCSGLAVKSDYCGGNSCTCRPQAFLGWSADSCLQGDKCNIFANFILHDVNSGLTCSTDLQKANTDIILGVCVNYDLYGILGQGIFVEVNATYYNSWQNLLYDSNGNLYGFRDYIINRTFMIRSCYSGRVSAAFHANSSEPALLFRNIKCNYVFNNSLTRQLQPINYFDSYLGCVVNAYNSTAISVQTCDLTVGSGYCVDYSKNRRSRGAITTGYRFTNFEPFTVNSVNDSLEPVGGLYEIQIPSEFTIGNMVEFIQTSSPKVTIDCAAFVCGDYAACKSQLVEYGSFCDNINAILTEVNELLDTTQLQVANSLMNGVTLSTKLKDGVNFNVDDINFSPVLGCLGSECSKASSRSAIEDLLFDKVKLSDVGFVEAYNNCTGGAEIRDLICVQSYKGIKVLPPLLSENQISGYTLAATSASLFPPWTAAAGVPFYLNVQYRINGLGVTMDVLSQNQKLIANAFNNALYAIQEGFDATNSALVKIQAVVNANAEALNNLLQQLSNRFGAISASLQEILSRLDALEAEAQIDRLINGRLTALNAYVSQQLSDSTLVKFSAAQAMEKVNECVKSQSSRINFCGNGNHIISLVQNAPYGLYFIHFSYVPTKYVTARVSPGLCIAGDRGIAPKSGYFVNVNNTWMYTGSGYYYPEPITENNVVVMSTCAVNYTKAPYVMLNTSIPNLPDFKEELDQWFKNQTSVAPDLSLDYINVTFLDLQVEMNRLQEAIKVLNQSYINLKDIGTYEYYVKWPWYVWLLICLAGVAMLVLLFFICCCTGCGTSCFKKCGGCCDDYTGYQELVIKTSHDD

| Binder | binding result [1] | binding result [3] | further results |
| --- | --- | --- | --- |
| S2M11 (antibody, V domains shown) VH: EVQLVQSGAEVKKPGASVKVSCKASGYTFTGYYMHWVRQAPGQGLEWMGWINPISSGTSYAQTFQGRVTMTSDTSITTAYMELSRLRSDDTAVYYCARAAPFYDFWSGYSYFDYWGQGTLVTVSS VL: not shown | binds |  |  |
| CV07-270 (antibody, V domains shown) VH: QVQLVESGGGLVKPGGSLRLSCAASGFTFSDYYMTWIRQAPGKGLEWVSYISSSGSTIYYADSVKGRFTISRDNAKNSLYLQMNSLRAEDTAVYYCARARGSSGWYRIGTRWGNWFDPWGQGTLVTVSS VL: QSALTQPASVSGSPGQSITISCTGTSSDVGGYNYVSWYQQHPGKAPKLMIYEVSNRPSGVSNRFSGSKSGNTASLTISGLQAEDEADYYCSSYTSSSNVVFGGGTMLTVL | binds |  |  |
| REGN10987 (sdFab) (Fab, V domains shown) VH: QVQLVESGGGVVQPGRSLRLSCAASGFTFSNYAMYWVRQAPGKGLEWVAVISYDGSNKYYADSVKGRFTISRDNSKNTLYLQMNSLRTEDTAVYYCASGSDYGDYLLVYWGQGTLVTVSS VL: QSALTQPASVSGSPGQSITISCTGTSSDVGGYNYVSWYQQHPGKAPKLMIYDVSKRPSGVSNRFSGSKSGNTASLTISGLQSEDEADYYCNSLTSISTWVFGGGTKLTVL |  |  | binding result [2]: binds |
| COVA2-16 (antibody, V domains shown) VH: QVQLVQSGAEVKKPGATVKISCKVSGYTFTDYYMHWVQQAPGKGLEWMGLVDPEDGETIYAEKFQGRVTITADTSTDTAYMELSSLRSEDTAVYYCASSDSSGFVGSRGFDYWGQGTRVTVSS VL: DIQLTQSPSSLSASVGDRVTITCRASQGIRNDLGWYQQKPGKAPKRLIYAASSLQSGVPSRFSGSGSGTEFTLTISSLQPEDFATYYCLQHNSYPPLFGQGTKVEIK | binds | binds |  |
| COVA2-20 (antibody, V domains shown) VH: EVQLVESGGGLIQPGGSLRLSCAASGFTVSSNYMSWVRQAPGKGLEWVSVIYSGGSTYYADSVKGRFTISRDNSKNTLYLQMNSLRAEDTAVYYCASPLLLTPPDYYYYMDVWGKGTMVTVSS VL: DVVMTQSPSSLSVSVGDRVTITCRASQGIRNDLGWYQQKPGKAPKRLIYAASSLQSGVPSRFSGSGSGTEFTLTISSLQPEDFATYYCLQHNSYLWTFGQGTKLEIK | binds | binds |  |
| S2E12 (antibody, V domains shown) VH: not shown VL: DIVLTQTPGTLSLSPGERATLSCRASQSVSSSYLAWYQQKPGQAPRLLIYGASSRATGIPDRFSGSGSGTDFTLTISRLEPEDFAVYYCQQYVGLTGWTFGQGTKVEIK | binds |  |  |
| COVA2-02 (antibody, V domains shown) VH: VQLQQESGPGLVKPSETLSLTCTVSGGSISSSSYYWGWIRQPPGKGLEWIGSIYYSGSTYYNPSLKSRVTISVDTSKNQFSLKLSSVTAADTAVYYCARRSTSRWGYYYMDVWGKGTRVTVSS VL: DIVMTQSPSSLSASVGDRVTITCRASQSISNYLNWYQQKPGKAPKLLLYAASDLQSGVPSRFSGSGSGTDFTLTISSLQPEDFATYYCQQSYSTHMSTFGQGTKVDIK | binds | binds |  |
| LY-CoV555 (sdFab) (Fab, V domains shown) VH: QVQLVQSGAEVKKPGSSVKVSCKASGGTFSNYAISWVRQAPGQGLEWMGRIIPILGIANYAQKFQGRVTITADKSTSTAYMELSSLRSEDTAVYYCARGYYEARHYYYYYAMDVWGQGTAVTVSS VL: not shown |  |  | binding result [2]: binds |
| LY-CoV1404 (sdFab) (Fab, V domains shown) VH: QITLKESGPTLVKPTQTLTLTCTFSGFSLSISGVGVGWLRQPPGKALEWLALIYWDDDKRYSPSLKSRLTISKDTSKNQVVLKMTNIDPVDTATYYCAHHSISTIFDHWGQGTLVTVSS VL: QSALTQPASVSGSPGQSITISCTATSSDVGDYNYVSWYQQHPGKAPKLMIFEVSDRPSGISNRFSGSKSGNTASLTISGLQAEDEADYYCSSYTTSSAVFGGGTKLTVL |  |  | binding result [2]: binds |
| COVA1-16 (antibody, V domains shown) VH: QVQLVQSGAEVKKPGASVKVSCKASGYTFTSYYMHWVRQAPGQGLEWMGIINSSGGSTSYAQKFQGRVTMTRDTSTSTVYMELSSLRSEDTAVYYCARPPRNYYDRSGYYQRAEYFQHWGQGTLVTVSS VL: DIQLTQSPSSLSASVGDRVTITCQASQDISNYLNWYQQRPGKAPKLLIYDASNLETGVPSRFSGSGSGTDFTFTISSLQPEDIATYYCQQYDNPPLTFGGGTKLEIK | binds | binds |  |
| REGN10933 (sdFab) (Fab, V domains shown) VH: QVQLVESGGGLVKPGGSLRLSCAASGFTFSDYYMSWIRQAPGKGLEWVSYITYSGSTIYYADSVKGRFTISRDNAKSSLYLQMNSLRAEDTAVYYCARDRGTTMVPFDYWGQGTLVTVSS VL: DIQMTQSPSSLSASVGDRVTITCQASQDITNYLNWYQQKPGKAPKLLIYAASNLETGVPSRFSGSGSGTDFTFTISGLQPEDIATYYCQQYDNLPLTFGGGTKVEIK |  |  | binding result [2]: binds |
| CB6 (sdFab) (Fab, V domains shown) VH: EVQLVESGGGLVQPGGSLRLSCAASGFTVSSNYMSWVRQAPGKGLEWVSVIYSGGSTFYADSVKGRFTISRDNSMNTLFLQMNSLRAEDTAVYYCARVLPMYGDYLDYWGQGTLVTVSS VL: not shown |  |  | binding result [2]: binds |
| COVA2-24 (antibody, V domains shown) VH: EVQLVQSGAEVKKPGESLRISCKGSGYSFTSYWISWVRQMPGKGLEWMGRIDPSDSYTNYSPSFQGHVTISADKSISTAYLQWSSLKASDTAMYYCARPNPAGGYDSSGWVDAFDIWGQGTRVTVSS VL: not shown |  | binds |  |
| AZD8895 (sdFab) (Fab, V domains shown) VH: EVQLVQSGPEVKKPGTSVKVSCKASGFTFMSSAVQWVRQARGQRLEWIGWIVIGSGNTNYAQKFQERVTITRDMSTSTAYMELSSLRSEDTAVYYCAAPYCSSISCNDGFDIWGQGTMVTVSS VL: not shown |  |  | binding result [2]: binds |
| S2X35 (antibody, V domains shown) VH: QVQLVQSGAEVKKPGASVKVSCKASGYTFTNYGISWVRQAPGQGLEWMGWISAYKGNTNYAQKLQGRVTMTTDTSTSTAYMELRSLRSDDTAVYYCARPDYQVLGYDFWIGYYGMDVWGQGTTVIVSS VL: QSVLTQPPSVSGAPGQRVTISCTGSSSNIGAGYDVHWYQQLPGTAPKLLIYGNTNRPSGVPDRFSGSKSGTSASLAITGLQAEDEADYYCQSYDSSLSGSEVVFGGGTKLTVL | binds |  |  |
| COVA2-07 (antibody, V domains shown) VH: EVQLVETGGGLIQPGGSLRLSCAASGLTVSSNYMNWVRQAPGKGLEWVSVIYSGGSTYYADSVKGRFTISRDNSKNTLYLQMNSLRAEDTAVYYCAREAYGMDVWGQGTMVTVSS VL: not shown |  | binds |  |
| COVA2-15 (antibody, V domains shown) VH: QVQLLESGGGLVQPGGSLRLSCAASGFTFSSYAMSWVRQAPGKGLEWASAISGSGGSTYYADSVEGRFTISRDNSKNTLYLQMNSLRAEDTAVYYCAKDTGYCGDDCYIKLIRGGPDYWGQGTLVTVSS VL: DIVMTQSPLSLPVTLGQPASISCRSSQSLVYSDGNTFLNWFQQRPGQSPRRLIYQVSNRDSGVPDRFSGSGSGTDFTLKISRVEAEDVGVYYCMQGTHWPRTFGQGTKLEIK | binds | binds |  |
| S2P6 (sdFab) (Fab, V domains shown) VH: EVQLVQSGAEVKKPGASVKVSCKASGYTFTSQYMHWVRQAPGQGLEWIGIINPSGVHTSYAQKFQGRVTLTRDTSTSTLYMELSSLRSEDTAVYYCARGSPKGAFDYWGQGTLVTVSS VL: not shown |  |  | binding result (HCoV-OC43 S): binds |
| COVA2-17 (antibody, V domains shown) VH: QVQLVESGAEVKKPGSSVKVSCKASGGTFSSYGINWVRQAPGQGLEWMGGIIPIFGTANYAQKFQGRVTITTDESTSTAYMELSSLRSEDTAVYYCASFGDDSGDEGVRWGQGTLVTVSS VL: EIVMTQSPATLSLSPGERATLSCRASQSVSSYLAWYQQKPGQAPRLLIYDASNRATGIPARFSGSGSGTDFTLTISSLEPEDFAVYYCQQRSNWPPYTFGQGTKVEIK | binds | binds |  |
| S304 (antibody, V domains shown) VH: VQLVESGGGLVQPGGSLRLSCAASGFTFSSYDMHWVRQTTGKGLEWVSTIGTAGDTYYPDSVKGRFTISREDAKNSLYLQMNSLRAGDTAVYYCARGDSSGYYYYFDYWGQGTLLTVSS VL: DIEMTQSPSSLSAAVGDRVTITCRASQSIGSYLNWYQQKPGKAPKLLIYAASSLQSGVPSRFSGSGSGTDFTLTISSLQPEDFAIYYCQQSYVSPTYTFGPGTKVDIK | binds |  |  |
| COVA2-11 (antibody, V domains shown) VH: EVQLVESGAEVKKPGSSVKVSCKASGGTLSSYAISWVRQAPGQGLEWMGGIIPIFGTANYAQKFQGRVTITTDESTSTAYMELSSLRSEDTAVYYCARGPRGCSSTSCYGSYFDYWGQGTLVTVSS VL: not shown |  | binds |  |
| P2B-2F6 (antibody, V domains shown) VH: QVQLQESGPGLVKPSETLSLTCTVSGYSISSGYYWGWIRQPPGKGLEWIGSIYHSGSTYYNPSLKTRVTISVDTSKNQFSLKLSSVTAADTAVYYCARAVVGIVVVPAAGRRAFDIWGQGTMVTVSS VL: QSALTQPPSASGSPGQSVTISCTGTSSDVGGYNYVSWYQQHPGKAPKLMIYEVSKRPSGVPDRFSGSKSGNTASLTVSGLQAEDEADYYCSSYAGSNNLVFGGGTKLTVL | binds |  |  |
| COVA2-05 (antibody, V domains shown) VH: EVQLLESGAEVKKPGESLKISCKGSGYSFTSYWIGWVRQMPGKGLEWMGIIYPGDSDTRYSPSFQGQVTISADKSISTAYLQWSSLKASDTAMYYCARHMRPSIAARPGYQYYMDVWGKGTRVTVSS VL: not shown |  | binds |  |
